Experimental findings from patent US20100015126A1, “Methods of Binding of Cross-Beta Structures By Chaperones” (priority 2006, published 2010) are described below.

This experiment deals with T1, recombinant human HSP90beta (Homo sapiens, UniProt P08238).
T1 construct: purchased Dr. S. Rüdiger, Cellular Protein Chemistry, Utrecht University
T1 sequence (P08238 whole entry): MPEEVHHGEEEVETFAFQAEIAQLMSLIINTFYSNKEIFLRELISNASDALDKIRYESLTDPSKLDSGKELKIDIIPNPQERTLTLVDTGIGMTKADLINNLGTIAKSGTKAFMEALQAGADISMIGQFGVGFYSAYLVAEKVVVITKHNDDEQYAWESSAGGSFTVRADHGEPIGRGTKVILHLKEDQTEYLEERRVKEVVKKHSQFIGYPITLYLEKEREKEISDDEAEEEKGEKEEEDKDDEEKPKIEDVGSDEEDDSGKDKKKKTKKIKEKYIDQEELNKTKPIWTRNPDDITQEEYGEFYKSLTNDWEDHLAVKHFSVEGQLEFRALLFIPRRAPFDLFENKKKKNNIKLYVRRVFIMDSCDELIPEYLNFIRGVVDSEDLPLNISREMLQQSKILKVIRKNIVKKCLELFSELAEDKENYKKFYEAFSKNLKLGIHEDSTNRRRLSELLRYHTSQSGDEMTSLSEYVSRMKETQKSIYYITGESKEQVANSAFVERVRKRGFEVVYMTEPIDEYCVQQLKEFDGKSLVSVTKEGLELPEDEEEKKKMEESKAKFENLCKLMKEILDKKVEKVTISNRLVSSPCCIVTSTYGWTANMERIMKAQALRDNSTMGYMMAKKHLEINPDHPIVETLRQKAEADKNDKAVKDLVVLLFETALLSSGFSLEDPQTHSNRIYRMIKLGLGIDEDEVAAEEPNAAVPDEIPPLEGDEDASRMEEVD
The experiment can be described thus: ELISA: binding of HSP90 to immobilized (misfolded) protein ligands. As to conditions: 5 mM DTT in binding buffer. How it is done: Recombinant human HSP90beta was bought from Dr. S. Rüdiger (Cellular Protein Chemistry, Department of Chemistry, Faculty of Science, Utrecht University). HSP90beta eluted from an anion exchange column was supplied in 35 mM Bis-Tris/25mM Tris, 5 mM DTT, approximately 385 mM NaCl, approximately pH 9.0. The HSP90beta concentration was 5.0 μM (450 μg/ml with a MW of 90.000 Da; extinction coefficient of 53740 l/(mol*cm)). The supplied frozen stock is kept at −80° C. Before use, the stock is quickly thawed almost completely in a 37° C. water bath, and kept at wet ice. Before use, the HSP90beta solution is centrifuged for 5 minutes at 16,000*g at 4° C. During dilution of HSP90beta solution, 5 mM DTT should be incorporated in the dilution buffer, to keep free Cys residues. Thawed HSP90beta was aliquoted and snap frozen in liquid nitrogen before re-storage at −80° C.
Binding of chaperones to immobilized (misfolded) protein ligands was determined using an enzyme linked immuno sorbent assay (ELISA) approach. For this purpose 50 μl/well of potential ligands at indicated concentrations or coat buffer only for control and background measurement purposes, were coated overnight at 4° C. or coated for 1 h at room temperature, with motion, in 50 mM NaHCO3 pH 9.6 (coat buffer). In general, ligands were coated at 5 μg/ml, unless stated otherwise. For example, BiP binding peptides 6BB# and oxLDL were coated at 50 μg/ml. Native haemoglobin (Sigma-Aldrich, H7379), albumin, IgIV Gammagard and ovalbumin controls were prepared from lyophilized stocks. The controls were prepared by dissolving lyophilized proteins at 1 mg/ml in PBS upon resuspending by pipetting, followed by a 30 minutes period at the roller device, at room temperature. The protein solutions were centrifuged for 10 minutes at 16,000*g and diluted in coat buffer. After coating the plates were washed at least three times with 50 mM Tris-HCl pH 7.3, 150 mM NaCl, 0.1% v/v Tween20, and blocked with Blocking reagent (Roche Diagnostics, Almere, The Netherlands; 11112589001), for 1 h at room temperature, with motion. Plates were washed three times and incubated in triplicate with indicated chaperone dilution series, at 50 μl/well, for 1 h at room temperature, with constant motion. For HSP90, 5 mM DTT is incorporated in the binding buffer (PBS/0.1% Tween20) to avoid unwanted disulfide bond formation of the HSP90. Plates were washed three times and incubated with anti-FLAG antibody (mouse antibody, M2, peroxidase conjugate; Sigma, A-8592) for BiP-FLAG-His, anti-His-tag antibody (Mouse Monoclonal Antibody, Cat. No. 70796, Novagen [0.2 mg/ml]) for HSP60, a 1:1 mix of 500-fold diluted anti-HSP90beta antibodies (Stressgen, SPA-643 [mouse monoclonal IgM], SPA-646 [rabbit polyclonal]) for HSP90 and an anti-DnaK antibody (Stressgen, 023SPA-880D [mouse monoclonal antibody]) for DnaK. After four wash cycles, secondary antibodies were added to the wells when required, 50 μl/well, for 45′ at room temperature, with motion. RAMPO and SWARPO were used at 3000 times dilution. […] In a second experiment with more immobilized misfolded proteins and controls, the detection of bound HSP90 with the mix of two anti-HSP90 antibodies was achieved by mixing 1:1500 SWARPO with 1:3000 RAMPO. After 5 washes with wash buffer followed by two washes with PBS, binding of antibodies was assessed. […] Plates were read at 450 nm. Triplicates were averaged and standard deviations calculated. […]
For AGEYYAAL [6BB7], the “Binding of concentration series of HSP90 to coated ligand” value (“Binding” for short) is reported as “little binding”.

Turning to GSNKGAIIGLM [6BB6, Human Aβ (25-35)], the “Binding” value was “has been established”.

With “Hb: non-modified human haemoglobin control”, the “Binding” value is “did not bind”.

Turning to “HbAGE: human haemoglobin glycated with glucose-6-phosphate for 75 weeks”, the “Binding” value is reported as “has been established”.

KLVFFAE [6BB12, Human Aβ16-22]: the “Binding” value is “did not bind”.
